For 139 substances, amyloid nucleation score results are on record in the supplement of paper PMC12042874.

± gives the uncertainty stated by the source.

The nature of this series: amyloid nucleation score (Sup35N fusion, yeast selection) (log enrichment); library NNK1; higher = more nucleation; inactive = no reads after selection. The gist of the method:
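Peptides of 20 random codons fused to Sup35N were expressed in psi-negative yeast, induced 24 hours with 100 μM copper sulfate, then grown 7 days at 30°C on medium lacking adenine and uracil. Input and output plasmid inserts were Illumina-sequenced. Nucleation score is the DiMSum log enrichment of output over input reads, centred on the mode score of non-aggregating sequences, excluding sequences with under 100 input reads. Random libraries had three technical output replicates.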

GGHFWWNTGQARVNWTIRLE gave an amyloid nucleation score of 0.123 ± 0.48.

For RSYLCDREYCVFGFCLGIYS, the amyloid nucleation score amounted to 3.44 ± 0.15.

Substance PFYLDSGADVTEPGHLGFYG registered an amyloid nucleation score of 0.158 ± 0.37. The result for LGGVSSVLFYSHFLQVLEWC reads -1.12 ± 0.78; that for RINVYII, 3.25 ± 0.19. The result for ELSVNMSRDLSVTGLVQGRR reads 0.794 ± 0.36; that for EIVRLVSVSVWVG, 0.014 ± 0.69; that for LAIVGQACRGVVEHARVSGH, 0.136 ± 0.41. The result for RYMLFVFHSLTGYYIRRFVY reads -1.22 ± 1; that for ICYTLTMVMAGVEAGGATLV, 0.294 ± 0.95; that for PEHRSGNKNMYLYRSRDDMN, 0.012 ± 0.7.

AVRTAFLAAHM displayed an amyloid nucleation score of -0.64 ± 0.98. In turn, DCCKLTDQQWDVIHAGIWGG came in with an amyloid nucleation score of 1.55 ± 0.69. AMGSDDE: the amyloid nucleation score was -0.338 ± 1.3. For GVMQFENIYGFVALMRRLMF, the amyloid nucleation score stood at 0.668 ± 0.62. The result for FILCMLMVSAGLFEQEALRY reads 0.506 ± 0.24. The result for GGLAGTTLKLRICF reads -1.03 ± 1.9. With HSGMRVPSMAYLVL, the amyloid nucleation score is -0.259 ± 0.7. The result for EFRSSVDWNAFMKLLVCTKH reads 0.021 ± 0.93; that for FIATNLSLYGFVYWLLSTTT, 0.414 ± 0.42.

Substance ASVYQRWPSFYRRLFVFNVI yielded an amyloid nucleation score of 0.358 ± 0.55. The result for DYALYYGVASNRFFGLFRSP reads 0.642 ± 0.31; that for RGYMCHCRVVSACFLYRKVQ, -0.044 ± 0.25. The result for PPHIRKAGMRTFMGGLGLRG reads 0.619 ± 0.67; that for EFERVRYLYCGRPVPSHILL, 0.005 ± 0.89; that for DGLICVPVKLYVNIGKTFTW, 0.847 ± 0.41. In turn, AINSSFWSVGLILEIDMYSY showed an amyloid nucleation score of -0.148 ± 0.45. The result for VVDFGSGCI reads 0.423 ± 0.46. The result for CGFSDNGTCKND reads -0.059 ± 0.28; that for NVRALILIKNCSPQMLRNEF, 5.07 ± 0.06.

Turning to LVFDGNLETCRQ, the amyloid nucleation score was determined as 0.164 ± 0.61. For ASFYPKPS, the amyloid nucleation score was found to be 0.4 ± 1.1. The result for FGMSCRVELDSDRARTTPWP reads 0.181 ± 0.64; that for VWLCLRIVVSGNNRACFICV, 1.46 ± 0.19. The result for NFINVVVWQEGYLRVIHTSV reads 0.537 ± 1.1; that for TLSKVICVSPTVGMGLSSER, 0.616 ± 0.79.

Regarding DADDLSIGAVNRTC, the amyloid nucleation score was -0.066 ± 0.5. Regarding ICIDCYQGC, the amyloid nucleation score is -0.721 ± 1.9. The result for QRFRTLCNLVFYLGSKVRET reads 0.317 ± 0.3; that for TYSPQLLYNYPLCLVFLSCL, 2.83 ± 0.15. The result for VLGSKKWDDLGYLYCRLCTH reads 0.64 ± 0.65; that for KRTAHRMVRSCSLWKVRYRQ, 0.462 ± 1.2. The result for SYSCSVSRKEFSIGVGEHEG reads -0.44 ± 0.5; that for LTTYFHFMSMTEWAWRRRSK, 0.538 ± 0.29. Take PFCGTFVCGVGLWIRVNCNR: the amyloid nucleation score stood at 0.728 ± 0.74. In turn, SNKDLKSLTICRSTQHWTVL displayed an amyloid nucleation score of 0.095 ± 0.27. In the case of IKISHACATMRQSGGFYVLK, the amyloid nucleation score is -0.511 ± 0.39. The substance NGKEDKTCLWSVQPYCKSCE came in with an amyloid nucleation score of -0.475 ± 1.2.

As to RWSQNMGSKSVRGTKFNLKL, the amyloid nucleation score amounted to 0.846 ± 0.21. The result for LSVAHDGSLWVLFRKKPFGL reads -0.106 ± 0.57; that for PFYSETDDSRYIDVRRVFCF, “inactive”; that for SIAFYFFKPLYVLVPNMFGY, 6.15 ± 0.073. For the substance HQIYVLATETNSPMLRWKLQ, the amyloid nucleation score is 0.879 ± 0.98. The result for PTRDCRVNKGSLMWTP reads -0.213 ± 0.59; that for THFMYIVELERGRLFGCSVR, 0.115 ± 1. The substance EVHRFRVKKEGGDQ yielded an amyloid nucleation score of 0.869 ± 0.57. The result for GQIIMCAARLWLGKGCVS reads -0.588 ± 1. The result for RSFWYDHGIRVGLRLYNCSM reads “inactive”; that for PAMLPLTAMFLLHGRYVLTP, -0.384 ± 0.8.

As for VMNENI, the amyloid nucleation score result is “inactive”. The result for SMVAPRPANVRVRLVGRGST reads 0.354 ± 0.51; that for SVCVCLTIGCDFSIESVRCN, 2.64 ± 0.32. The result for QDTRTLQGCRQWQRWITAEG reads 0.678 ± 0.84; that for RVMLKSDRFYYVLKTCAY, 1 ± 0.37. In turn, PHQPRILM had an amyloid nucleation score of -0.387 ± 0.36.

In turn, WFDELGRDFLV came in with an amyloid nucleation score of -0.193 ± 1.6. The result for AGRSNF reads -0.062 ± 1.2. Regarding VWLEYECKVLVLHYCFCRVR, the amyloid nucleation score was determined as 0.72 ± 0.61.

With NVPCRVLRFGHLSDIGIDCQ, the amyloid nucleation score turned out to be 0.705 ± 0.9. The result for FKRFWLR reads 0.166 ± 0.73; that for YFCAMGNHVLVS, -0.389 ± 0.49; that for IRQTVVLGL, -0.732 ± 0.7. The result for TWPVLSDGQAGELRVRMGSA reads 0.741 ± 0.88; that for GMRVRNRFVVSDSSYPPASH, -0.024 ± 0.26. SMAFGCWSVGWYRGMMSVCQ returned an amyloid nucleation score of 1.16 ± 0.6. The result for LGRSENDI reads 1.19 ± 0.4.

GKPWSSCHENSLINMDHSDV: the amyloid nucleation score result was “inactive”. For FTESCRRGI, the amyloid nucleation score is 0.053 ± 0.4. Take YSITIRITEYNGVVSTGLHL: the amyloid nucleation score was 0.325 ± 0.6. The result for YNTSGNTRS reads -0.269 ± 0.64; that for VFGLLPVSSCIVRNRRDLRN, -0.371 ± 0.27; that for EVVKSITRKPNLVWRYLTLD, 0.588 ± 0.44. The result for QVSANSKNKSVVLFQIKSNE reads -0.17 ± 0.4. Substance RQQMTRTCVNDGS returned an amyloid nucleation score of -1.02 ± 2.4. Take MFGFHRNRDDHSCIHFTFK: the amyloid nucleation score worked out at 2.58 ± 0.15. The result for CLYWFLKEHFC reads 1.06 ± 0.78; that for FDITRGRSTSYLIERRRTWG, 0.79 ± 0.82.

For HARRRCLDGFDMQGGIFM, the amyloid nucleation score is 0.047 ± 0.47. Substance PTSSGNATAWRNLNLLLCEL registered an amyloid nucleation score of 0.328 ± 0.97. Turning to SLSQFSKPGYICVNMVCSQA, the amyloid nucleation score was 1.36 ± 0.48.

ILSYVTVDPAKVNYIFREWF gave an amyloid nucleation score of -1.03 ± 0.76. The result for MYVPQSINSYTQWEPKHIRW reads 1.64 ± 0.43. The result for FSPSLVMHSATSLRNVGLSA reads -0.93 ± 2.4; that for HMAAYKVSGVKSGSPEW, -0.145 ± 0.59. DSYWFRRLC had an amyloid nucleation score of 0.22 ± 0.71. The result for SSFIWMNC reads -0.377 ± 0.42. Consider YYAHSGMWYAMSDQKGAVG, for which the amyloid nucleation score was determined as 0.552 ± 0.67. The result for RLNNLWKFDEVLLGSSNRTR reads -1.24 ± 0.44. The result for AFFNCPSTNTVWQRFNANRF reads 1.72 ± 0.14; that for VIDYVGFRHTGGGSVGFVGG, -0.387 ± 0.65; that for LWGIMYTM, -0.026 ± 0.93.

For FMMSNWTNLNSWKTL, the amyloid nucleation score was -0.122 ± 0.23.

The substance YYVMRYDASLYDKRKERVFG showed an amyloid nucleation score of 0.851 ± 0.39. For the substance WLVQAQALQGWKCFLHKISF, the amyloid nucleation score is -0.186 ± 0.48. For NMFMIV, the amyloid nucleation score was -1.05 ± 1.3. The result for NKLCTR reads “inactive”; that for PLLGASSRYDHAMLCGNRTF, 0.127 ± 0.33; that for SHCCR, “inactive”. The substance GLMSLYRQSSSLNRKAGWLT had an amyloid nucleation score of 0.46 ± 0.64. The result for SSRCY reads 0.104 ± 0.85; that for CRFPCSCHRWSMIRSVVCKR, 0.03 ± 0.97. SGDCVL came in with an amyloid nucleation score of 1.43 ± 0.26.

On to INLGLVGSRFGSNMERLYGG, for which the amyloid nucleation score was found to be 0.503 ± 1.1. The result for IKYINDITFLVLPYWFI reads 3.6 ± 0.072; that for WNPIAIYEGDGMQDAFCADL, -0.033 ± 0.38. Turning to NADMFRTVLMMMFPAFRLIR, the amyloid nucleation score is 0.172 ± 0.22. On to NRQKFSDVSYCTMTMFRVAH, for which the amyloid nucleation score was -0.61 ± 1.7.

For the substance STVAGRWNYCSVTLLCVGFF, the amyloid nucleation score came to 1.45 ± 0.31. The result for QNSENMFDINVLTWGCHMAM reads “inactive”; that for DGRKG, 1.26 ± 0.66. The result for FAHTLGA reads 0.333 ± 0.79. Turning to YYDFGIIRSCVFSNGCVGMY, the amyloid nucleation score came to 1.62 ± 0.8.

CTSLDFSNKVRCVMGQSVLL registered an amyloid nucleation score of -0.606 ± 0.97. The result for RETIPCVEVFTHRSLDFL reads 1.15 ± 0.83. The result for DYPCRRGDLRRG reads 0.642 ± 0.95; that for MRDTFFLDRMQITLCSW, 0.306 ± 0.33.

Substance RECFRQANFCFMGLSTLGKS displayed an amyloid nucleation score of -0.88 ± 0.79. CCSPAPLSLVIIVATVGVAS: the amyloid nucleation score amounted to 2.04 ± 0.19. For SHLLGINCCCA, the amyloid nucleation score is 0.131 ± 0.85.

In turn, TLPDKRILLSANIMPALVCN registered an amyloid nucleation score of 0.837 ± 0.31. Turning to MPPMYGRGRPMNKIGVWDYA, the amyloid nucleation score is 1.14 ± 0.51.

Regarding SHVPEVGVGSDAVFLANKGI, the amyloid nucleation score is -0.855 ± 0.69. The result for LDWAWFYCSRNKRFSTILFR reads 0.138 ± 0.79; that for CSPLVGMTGAMLTVRGSISR, 0.019 ± 1; that for VRNWWDDNYSFTHAYLSTDG, 1.01 ± 0.66. KFCLDLSYLFSSRTVMYEIV gave an amyloid nucleation score of -0.24 ± 0.26. The result for YSCCRVFMCARWLRVTCNMS reads 0.189 ± 0.31. The result for KHDRHAKTTSLYRKPGKLRR reads 0.4 ± 1.1; that for TMRSNRLFRICFCLGKKYWL, -0.562 ± 0.33.
